Where “and” joins values, the source holds several entries; their conditions need not be identical. Equal values may be shown once.
B1: biotinylated recombinant human PD-L2 (ligand, UniProt Q9BQ51 20-219, looked up)
chain: LFTVTVPKELYIIEHGSNVTLECNFDTGSHVNLGAITASLQKVENDTSPHRERATLLEEQLPLGKASFHIPQVQVRDEGQYQCIIIYGVAWDYKYLTLKVKASYRKINTHILKVPETDEVELTCQATGYPLAEVSWPNVSVPANTSHSRTPEGLYQVTSVLRLKPPPGRNFSCVFWNTHVRELTLASIDLQSQMEPRTHP
modifications: biotinylated
notes: Bought reagent; also called programmed cell death 1 ligand 2
B2: IgG1-PD1 (antibody)
heavy: QVQLVESGGGLVQPGTSLRLSCSVSGFSLYSYNMGWVRQAPGKGLEYIGIISGGTIGHYASWAKGRFTISRDTSKTTLYLQMNSLTTEDTATYFCARAFYDDYDYNVWGPGTLVTVSSASTKGPSVFPLAPSSKSTSGGTAALGCLVKDYFPEPVTVSWNSGALTSGVHTFPAVLQSSGLYSLSSVVTVPSSSLGTQTYICNVNHKPSNTKVDKRVEPKSCDKTHTCPPCPAPEFERGPSVFLFPPKPKDTLMISRTPEVTCVVVDVSHEDPEVKFNWYVDGVEVHNAKTKPREEQYNSTYRVVSVLTVLHQDWLNGKEYKCKVSNKALPAPIEKTISKAKGQPREPQVYTLPPSREEMTKNQVSLTCLVKGFYPSDIAVEWESNGQPENNYKTTPPVLDSDGSFFLYSKLTVDKSRWQQGNVFSCSVMHEALHNHYTQKSLSLSPG
light: AIQLTQSPSSLSASVGGTVTITCQSSQSVYGNNQLSWYQQKPGQPPKLLIYQASKLETGVPSRFRGSGSGTQFTLTISSLQSEDFATYYCAGGYSSSSDTTFGGGTEVVVKRTVAAPSVFIFPPSDEQLKSGTASVVCLLNNFYPREAKVQWKVDNALQSGNSQESVTEQDSKDSTYSLSSTLTLSKADYEKHKVYACEVTHQGLSSPVTKSFNRGEC
notes: also called IgG1-PDI; copies: 2 + 2

Experiments:
[1] = molecular target: T1, human PD-1, full-length, expressed on cells (human, UniProt Q15116 25-288); experiment: flow cytometry: 1 µg/mL biotinylated recombinant human PD-L2 on CHO-S cells transiently transfected with human PD-1; streptavidin-allophycocyanin; % of cells binding PD-L2
T1 construct: whole, on cells; also called programmed cell death protein 1; membrane-expressed human PD-1

[2] = molecular target: T1, human PD-1, full-length, expressed on …; experiment: competition flow cytometry: antibody titrated against 1 µg/mL biotinylated recombinant human PD-L2 on CHO-S cells transiently transfected with human PD-1; streptavidin-allophycocyanin; % of cells binding PD-L2
[3] = molecular target: T1, human PD-1, full-length, expressed on …; experiment: cell-based or functional assay
[4] = molecular target: complement protein C1q (from human serum) (human, UniProt P02745 23-245; P02746 28-253; P02747 29-245); experiment: flow cytometry: C1q from human serum on activated human CD8+ T cells pre-incubated with antibody, FITC anti-C1q
[5] = molecular target: T1, human PD-1, full-length, expressed on …; experiment: cell-based or functional assay; remark: listed apart in the source

T1 sequence (Q15116 25-288): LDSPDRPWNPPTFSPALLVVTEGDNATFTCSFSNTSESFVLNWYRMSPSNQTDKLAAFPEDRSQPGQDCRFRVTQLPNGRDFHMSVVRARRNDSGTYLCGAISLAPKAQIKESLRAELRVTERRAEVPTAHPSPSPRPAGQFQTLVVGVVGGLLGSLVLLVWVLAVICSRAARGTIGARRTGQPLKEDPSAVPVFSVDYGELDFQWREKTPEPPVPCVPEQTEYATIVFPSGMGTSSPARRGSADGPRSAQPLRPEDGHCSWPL
complement protein C1q (from human serum), sequence (P02745 23-245, chain 1 of 3): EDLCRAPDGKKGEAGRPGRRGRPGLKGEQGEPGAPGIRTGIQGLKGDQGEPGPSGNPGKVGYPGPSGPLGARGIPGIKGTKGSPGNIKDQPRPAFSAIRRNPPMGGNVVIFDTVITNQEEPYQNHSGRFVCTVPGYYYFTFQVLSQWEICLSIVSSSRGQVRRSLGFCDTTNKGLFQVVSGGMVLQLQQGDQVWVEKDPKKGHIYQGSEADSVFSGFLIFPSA
complement protein C1q (from human serum), sequence (P02746 28-253, chain 2 of 3): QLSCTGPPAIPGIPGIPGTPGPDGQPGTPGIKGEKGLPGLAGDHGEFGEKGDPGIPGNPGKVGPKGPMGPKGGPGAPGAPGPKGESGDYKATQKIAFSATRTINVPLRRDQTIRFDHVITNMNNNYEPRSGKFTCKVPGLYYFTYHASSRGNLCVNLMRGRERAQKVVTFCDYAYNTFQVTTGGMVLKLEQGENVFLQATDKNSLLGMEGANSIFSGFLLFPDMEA
complement protein C1q (from human serum), sequence (P02747 29-245, chain 3 of 3): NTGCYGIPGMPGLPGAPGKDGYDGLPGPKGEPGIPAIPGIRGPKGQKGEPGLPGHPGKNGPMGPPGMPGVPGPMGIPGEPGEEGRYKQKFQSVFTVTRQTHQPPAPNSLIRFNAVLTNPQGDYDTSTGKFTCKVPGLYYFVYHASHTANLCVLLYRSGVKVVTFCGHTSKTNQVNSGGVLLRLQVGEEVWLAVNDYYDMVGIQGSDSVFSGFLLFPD

Row | Binder | binding result [1] | IC50 (read off the curve) [2] [µg/mL] | EC50 of PD-1/PD-L1 checkpoint blockade (luminescence, cell-based PD-1/PD-L1 blockade reporter assay) [3] | binding result [4] | Average EC50, CD8+ T-cell expansion index in the antigen-specific proliferation assay [5]
1 | B1 | binds |  |  |  | 
2 | B2 |  | ~0.9 | 0.165 µg/mL and 1.12 nM | no binding (tested: antibody up to 30 µg/mL; 20% human serum) | 0.0124 µg/mL and 0.0837 nM

Source: patent US20260274979A1 (Genmab, published 2026)
